Results taken from US20150224182A1 (UNIVERSITY OF VIRGINIA PATENT FOUNDATION, published 2015).
Non-standard residues stand in square brackets, D forms with d. No end group written: not given here. pT = C[C@@H](OP(=O)(O)O)[C@H](N)C(=O)O; pS = N[C@@H](COP(=O)(O)O)C(=O)O

B1: pS33/S37-βcat30 (doubly phosphorylated β-catenin 30-39) (peptide)
peptide: YLD[pS]GIH[pS]GA
notes: also called pS33/pS37-βcat30; pS33/37-βcat30
B2: pS33-βcat30 (YLD(pS)GIHSGA, β-catenin 30-39 with phosphoserine 33) (peptide)
peptide: YLD[pS]GIHSGA
notes: also called pS33-βcatenin30-39; YLDsGIHSGA
B3: GRK2 phosphopeptide KPRsPVVEL (peptide)
peptide: KPR[pS]PVVEL
notes: also called Beta-Adrenergic receptor kinase 1
B4: β-Synemin phosphopeptide RTFpSPTYGL (peptide)
peptide: RTF[pS]PTYGL
notes: also called SYNM; pS429-β-Synemin426-434

target: T1, HLA B*0702 (human); experiment: MS of peptides eluted from HLA; L/M column: L/M
T1 construct: Class I MHC molecule of the cells from which the associated phosphopeptides were detected; also called HLA-B7

| Binder | binding result |
| --- | --- |
| KPR[pS]PVVEL [KPRsPVVEL] | binds |
| SPRR[pS]RSISL [SPRRsRSISL] | binds |
| RPA[pS]ARAQPGL [RPAsARAQPGL] | binds |

target: T2, HLA-B*0702 (human); experiment: HLA-B7 eluate MS; ALL1; 3 means 6-25 copies/cell
T2 construct: also called HLA-B7
Text: (§1) The mixture was subjected to centrifugation and the resulting supernatant was passed over protein A sepharose pre-loaded with the HLA-A2-specific antibody BB7.2 or HLA-B7-specific antibody ME1. Peptides were eluted from the purified class I MHC molecules with 10% acetic acid.

| Binder | binding result |
| --- | --- |
| RPV[pS]PFQEL [phosphopeptide RPVsPFQEL (no gene name in Table 7; no database hit)] | binds |
| KPP[pT]PGASF [SPEN phosphopeptide KPPtPGASF] | binds |
| RPP[pS]SEFLDL [RERE phosphopeptide RPPsSEFLDL] | binds |

target: T2, HLA-B*0702; experiment: HLA-B7 eluate MS; ALL1; 1 means <1 copy/cell
Text: as §1

| Binder | binding result |
| --- | --- |
| KPP[pS]PEHQSL [MORC2 phosphopeptide KPPsPEHQSL] | binds |
| TPI[pS]PGRASGM [RUNX1 phosphopeptide TPIsPGRASGM] | binds |
| KPA[pS]PARRL [MAP1A phosphopeptide KPAsPARRL] | binds |
| SPK[pS]PGLKA [RCSD1 phosphopeptide SPKsPGLKA] | binds |
| TPAQPQRR[pS]L [TPX2 phosphopeptide TPAQPQRRsL] | binds |
| SPR[pS]PGKPM [phosphopeptide SPRsPGKPM (no gene name in Table 7; no database hit)] | binds |

target: T2, HLA-B*0702; experiment: HLA-B7 eluate MS; AML1; 1 means <1 copy/cell
Text: as §1

| Binder | binding result |
| --- | --- |
| RPR[pS]PAARL [ZNF219 phosphopeptide RPRsPAARL] | binds |
| EPKRR[pS]ARL [HMGN1 phosphopeptide EPKRRsARL] | binds |
| RPKLS[pS]PAL [EP300 phosphopeptide RPKLSsPAL] | binds |
| VPR[pS]PKHAHSSSL (also called Supervillin) [SVIL phosphopeptide VPRsPKHAHSSSL] | binds |
| SPGLARKR[pS]L [ZFP106 phosphopeptide SPGLARKRsL] | binds |
| LPA[pS]PRARL [MAP7D1 phosphopeptide LPAsPRARL] | binds |
| RPR[pS]LEVTI (also called Pyrin) [MEFV phosphopeptide RPRsLEVTI] | binds |
| YQR[pS]FDEVEGV [GIGYF2 phosphopeptide YQRsFDEVEGV] | binds |
| RPR[pS]PGSNSKV [GTF2IRD1 phosphopeptide RPRsPGSNSKV] | binds |
| SPSTSRSGG[pS]SRL [C1orf63 phosphopeptide SPSTSRSGGsSRL] | binds |
| RRS[pS]LDAEIDSL [LPP phosphopeptide RRSsLDAEIDSL] | binds |
| KPPYRSH[pS]L [CCDC45 phosphopeptide KPPYRSHsL] | binds |
| SPEKAGRR[pS]SL [CCDC88B phosphopeptide SPEKAGRRsSL] | binds |

target: T2, HLA-B*0702; experiment: HLA-B7 eluate MS; ALL1; 4 means >25 copies/cell
Text: as §1

| Binder | binding result |
| --- | --- |
| RPA[pS]AGAML [MEF2D phosphopeptide RPAsAGAML] | binds |
| KPPH[pS]PLVL [MYC phosphopeptide KPPHsPLVL] | binds |
| RAP[pS]PSSRM [SRRM2 phosphopeptide RAPsPSSRM] | binds |
| FSI[pS]PVRL [SON phosphopeptide FSIsPVRL] | binds |
| RPV[pT]PVSDL [KLF10 phosphopeptide RPVtPVSDL] | binds |
| RPQRA[pT]SNVF [MYL9 phosphopeptide RPQRAtSNVF] | binds |

target: T2, HLA-B*0702; experiment: HLA-B7 eluate MS; AML1; 2 means 1-5 copies/cell
Text: as §1

| Binder | binding result |
| --- | --- |
| YQR[pS]FDEVEGVF [GIGYF2 phosphopeptide YQRsFDEVEGVF] | binds |
| RPRPH[pS]APSL [MIIP phosphopeptide RPRPHsAPSL] | binds |
| SPR[pS]PSTTYL [CHAF1A phosphopeptide SPRsPSTTYL] | binds |
| RPRAN[pS]GGVDL [RREB1 phosphopeptide RPRANsGGVDL] | binds |
| RPR[pS]AVLL [AKAP13 phosphopeptide RPRsAVLL] | binds |
| RPQRAT[pS]NVF [MYL9 phosphopeptide RPQRATsNVF] | binds |
| RPSRS[pS]PGL [SYNPO phosphopeptide RPSRSsPGL] | binds |
| RPR[pS]PTGP[pS]NSF (also called Splicing factor 45) [RBM17 phosphopeptide RPRsPTGPsNSF] | binds |
| RPR[pS]PSPIS [GRM5 phosphopeptide RPRsPSPIS] | binds |
| KPA[pS]PKFIVTL [ZC3H14 phosphopeptide KPAsPKFIVTL] | binds |
| SPS[pS]PSVRRQL [ANKRD17 phosphopeptide SPSsPSVRRQL] | binds |
| FRR[pS]PTKSSL [RBM14 phosphopeptide FRRsPTKSSL] | binds |

target: T3, HLA-A*0201 (human); experiment: competition with iodinated [..] for purified HLA-A*0201 plus β2M, capture on W6/32 plates
T3 construct: also called HLA-A2
Experimental: Peptide-MHC complexes were captured in W6/32-coated ELISA plates after 48 hours and the dose at which test peptides inhibited binding of the indicator peptide by 50% (IC₅₀) was calculated.

| Binder | IC50 |
| --- | --- |
| B1 | 0.678 µg/mL |
| B2 | 0.327 µg/mL |

target: T2, HLA-B*0702; experiment: HLA-B7 eluate MS; AML1; 4 means >25 copies/cell
Text: as §1

| Binder | binding result |
| --- | --- |
| SPRR[pS]RSISL [SFRS7 phosphopeptide SPRRsRSISL] | binds |
| RRK[pS]QVAEL [MKI67IP phosphopeptide RRKsQVAEL] | binds |
| FRR[pS]PTKSSLDY [RBM14 phosphopeptide FRRsPTKSSLDY] | binds |
| RPR[pS]PTGP (also called Splicing factor 45) [RBM17 phosphopeptide RPRsPTGP] | binds |

target: T2, HLA-B*0702; experiment: HLA-B7 eluate MS; ALL1; 2 means 1-5 copies/cell
Text: as §1

| Binder | binding result |
| --- | --- |
| RPKPSS[pS]PV [PCBP2 phosphopeptide RPKPSSsPV] | binds |
| B3 | binds |
| KPY[pS]PLASL [NFATC2 phosphopeptide KPYsPLASL] | binds |
| RPP[pS]PGPVL [SCAP phosphopeptide RPPsPGPVL] | binds |
| RPD[pS]RLGKTEL [SETD2 phosphopeptide RPDsRLGKTEL] | binds |
| RPAK[pS]MDSL [ARHGAP30 phosphopeptide RPAKsMDSL] | binds |
| RPY[pS]PPFFSL [FAM53C phosphopeptide RPYsPPFFSL] | binds |
| RSL[pS]PLLF [VPS13D phosphopeptide RSLsPLLF] | binds |
| RPA[pS]PAAKL [KIAA1310 phosphopeptide RPAsPAAKL] | binds |

target: T3, HLA-A*0201; experiment: MS of HLA-A*0201 (BB7.2) eluate; cultured melanocytes; +++ means 50-500 copies/cell

| Binder | binding result |
| --- | --- |
| RQL[pS]SGVSEI (also called HSPB1) [Heat shock protein 27 (HSP27) phosphopeptide RQLpSSGVSEI] | binds |
| RLS[pS]PLHFV (also called Protein FAM134A) [ORF 17, chromosome 2 phosphopeptide RLSpSPLHFV] | binds |

target: T3, HLA-A*0201; experiment: MS of HLA-A*0201 (BB7.2) eluate; cultured melanocytes; ++ means 5-50 copies/cell

| Binder | binding result |
| --- | --- |
| B4 | binds |
| RLL[pS]PLSSA (also called RAVER1) [phosphopeptide RLLpSPLSSA (source protein Unknown in Table 5)] | binds |
| RQD[pS]TPGKVFL (also called NR2C1) [Nuclear hormone receptor TR2 phosphopeptide RQDpSTPGKVFL] | binds |
| RQI[pS]QDVKL (also called AMPD2) [Adenosine monophosphate deaminase 2 phosphopeptide RQIpSQDVKL] | binds |
